{"source": "IntAct's records for PubMed 21151042", "parents": {"B1": {"name": "Bcl-2-like protein 11 (Mus musculus), O54918-1 (parent)", "chain": "MAKQPSDVSSECDREGGQLQPAERPPQLRPGAPTSLQTEPQGNPDGEGDRCPHGSPQGPLAPPASPGPFATRSPLFIFVRRSSLLSRSSSGYFSFDTDRSPAPMSCDKSTQTPSPPCQAFNHYLSAMASIRQSQEEPEDLRPEIRIAQELRRIGDEFNETYTRRVFANDYREAEDHPQMVILQLLRFIFRLVWRRH"}, "B2": {"name": "Bcl-2-like protein 11 (Mus musculus), O54918-1 (parent)", "chain": "B1 chain", "partner": "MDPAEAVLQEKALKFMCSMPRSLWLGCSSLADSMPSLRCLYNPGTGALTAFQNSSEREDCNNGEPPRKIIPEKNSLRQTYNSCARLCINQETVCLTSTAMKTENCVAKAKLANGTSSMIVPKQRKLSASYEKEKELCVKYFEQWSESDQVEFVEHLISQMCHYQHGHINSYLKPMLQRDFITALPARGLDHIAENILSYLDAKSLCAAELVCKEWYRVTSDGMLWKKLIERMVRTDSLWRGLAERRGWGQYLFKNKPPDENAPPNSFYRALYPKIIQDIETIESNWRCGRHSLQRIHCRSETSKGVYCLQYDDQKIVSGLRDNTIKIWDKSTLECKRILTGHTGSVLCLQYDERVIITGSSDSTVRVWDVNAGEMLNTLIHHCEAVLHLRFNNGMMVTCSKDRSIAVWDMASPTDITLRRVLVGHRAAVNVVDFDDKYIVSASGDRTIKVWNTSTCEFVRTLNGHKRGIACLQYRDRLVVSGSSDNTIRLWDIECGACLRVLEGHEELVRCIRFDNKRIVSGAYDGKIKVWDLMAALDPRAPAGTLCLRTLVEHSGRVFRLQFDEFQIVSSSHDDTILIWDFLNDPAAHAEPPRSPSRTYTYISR"}}}
{"variants_of": "B1", "conditions": "with kapca_human PRKACA"}
{"variant": "MAKQPSDVSSECDREGGQLQPAERPPQLRPGAPTSLQTEPQGNPDGEGDRCPHGSPQGPLAPPASPGPFATRSPLFIFVRRSALLSRSSSGYFSFDTDRSPAPMSCDKSTQTPSPPCQAFNHYLSAMASIRQSQEEPEDLRPEIRIAQELRRIGDEFNETYTRRVFANDYREAEDHPQMVILQLLRFIFRLVWRRH", "note": "[S83A]", "effect of a mutation on the interaction": "disrupting interaction"}
{"variants_of": "B2", "conditions": "with fbw1a_mouse Btrc"}
{"variant": "MAKQPSDVSSECDREGGQLQPAERPPQLRPGAPTSLQTEPQGNPDGEGDRCPHGSPQGPLAPPASPGPFATRSPLFIFVRRSALLSRSSSGYFSFDTDRSPAPMSCDKSTQTPSPPCQAFNHYLSAMASIRQSQEEPEDLRPEIRIAQELRRIGDEFNETYTRRVFANDYREAEDHPQMVILQLLRFIFRLVWRRH", "note": "[S83A]", "effect of a mutation on the interaction": "increasing interaction"}
